In general, Kd refers to a measure of binding affinity in units of concentration. One may read the koff as a measure of how fast the partners let go of each other. The kon is the rate constant with which the complex forms.

Here are results for 15 molecules from patent US20240360227A1.

Experiment [1] addresses Recombinant human his-tagged IGF R extracellular domain protein (human) (UniProt P08069). Put plainly: SPR, Ab captured via anti-huIgG Fc, pH 7.4. (In SPR one partner is held on a chip, and binding of the other changes the refractive index at the surface.)
Experiment [2] shares this target. As to the kind of experiment: SPR, Ab captured via anti-huIgG Fc, dissociation at pH 6.

B1: VRDN-02100 (antibody, human IgG1, kappa, V domains shown)
VH: QVQLQESGPGLVKPSETLSLTCTVSGYSITGGYLWNWIRQPPGKGLEWIGYISYDGTNNYKPSLKDRVTISRDTSKNQFSLKLSSVTAADTAVYYCARYGRVFFDYWGQGTLVTVSS
VL: DIVMTQSPLSLPVTPGEPASISCRSSQSIVHSNGNTYLQWYLQKPGQSPQLLIYKVSNRLYGVPDRFSGSGSGTDFTLKISRVEAEDVGVYYCFQGSHVPWTFGQGTKVEIKR
As to B1, in experiment [1], the Kd was 0.456 nM, the koff was 4.85e-05 s⁻¹ and the kon stood at 106000 M⁻¹ s⁻¹. Moreover, in experiment [2], the Kd stood at 1.05 nM, the koff is 9.16e-05 s⁻¹ and the kon is 86800 M⁻¹ s⁻¹.

B2: VRDN-02025 (antibody, V domains shown)
VH: QVQLQESGPGLVKPSETLSLTCTVSGYSITGGYLWNWIRQPPGKGLEWIGYISYDGTNNYKPSLKDRVTISRDTSKNQFSLKLSSVTAADTAVYYCARYGRVHFDYWGQGTLVTVSS
VL: DIVMTQSPLSLPVTPGEPASISCRSSQSIVHSNGNTYLQWYLQKPGQSPQLLIYKVSNRLYGVPDRFSGSGSGTDFTLKISRVEAEDVGVYYCFQGSHVPWTFGQGTKVEIK
With B2, in experiment [1], the dissociation constant (Kd) came to 2.08 nM, the koff was found to be 0.000141 s⁻¹ and the kon was 68000 M⁻¹ s⁻¹. Further, in experiment [2], the Kd came out at 1.51 nM, the koff is 9.5e-05 s⁻¹ and the kon was 63000 M⁻¹ s⁻¹.

B3: VRDN-02059 (antibody, V domains shown)
VH: QVQLQESGPGLVKPSETLSLTCTVSGYSITGGYLWNWIRQPPGKGLEWIGYIHYDGTNNYKPSLKDRVTISRDTSKNQFSLKLSSVTAADTAVYYCARYGRVFFDYWGQGTLVTVSS
VL: DIVMTQSPLSLPVTPGEPASISCRSHQSIVHSNGNTYLQWYLQKPGQSPQLLIYKVSNRLYGVPDRFSGSGSGTDFTLKISRVEAEDVGVYYCFQGSHVPWTFGQGTKVEIK
In the case of B3, in experiment [2], the Kd came out at 0.228 nM, the koff came to 4.43e-05 s⁻¹ and the kon is 194000 M⁻¹ s⁻¹.

B4: VRDN-02022 (antibody, V domains shown)
VH: QVQLQESGPGLVKPSETLSLTCTVSGYSITGGYLWNWIRQPPGKGLEWIGYISYDGTNNYKPSLKDRVTISRDTSKNQFSLKLSSVTAADTAVYYCARYHRVFFDYWGQGTLVTVSS
VL: DIVMTQSPLSLPVTPGEPASISCRSSQSIVHSNGNTYLQWYLQKPGQSPQLLIYKVSNRLYGVPDRFSGSGSGTDFTLKISRVEAEDVGVYYCFQGSHVPWTFGQGTKVEIK
B4: in experiment [1], the equilibrium dissociation constant (Kd) stood at 8.23 nM, the koff worked out at 0.000775 s⁻¹ and the kon was 94100 M⁻¹ s⁻¹.

B5: VRDN-02002 (antibody, V domains shown)
VH: QVQLQESGPGLVKPSETLSLTCTVSGHSITGGYLWNWIRQPPGKGLEWIGYISYDGTNNYKPSLKDRVTISRDTSKNQFSLKLSSVTAADTAVYYCARYGRVFFDYWGQGTLVTVSS
VL: DIVMTQSPLSLPVTPGEPASISCRSSQSIVHSNGNTYLQWYLQKPGQSPQLLIYKVSNRLYGVPDRFSGSGSGTDFTLKISRVEAEDVGVYYCFQGSHVPWTFGQGTKVEIK
Turning to B5, in experiment [1], the Kd was 0.992 nM, the koff was 0.000104 s⁻¹ and the kon was determined as 105000 M⁻¹ s⁻¹. In experiment [2], the Kd was determined as 1.11 nM, the koff is 9.22e-05 s⁻¹ and the kon came to 83000 M⁻¹ s⁻¹.

B6: VRDN-02017 (antibody, V domains shown)
VH: QVQLQESGPGLVKPSETLSLTCTVSGYSITGGYLWNWIRQPPGKGLEWIGYISYDHTNNYKPSLKDRVTISRDTSKNQFSLKLSSVTAADTAVYYCARYGRVFFDYWGQGTLVTVSS
VL: DIVMTQSPLSLPVTPGEPASISCRSSQSIVHSNGNTYLQWYLQKPGQSPQLLIYKVSNRLYGVPDRFSGSGSGTDFTLKISRVEAEDVGVYYCFQGSHVPWTFGQGTKVEIK
Consider B6, for which, in experiment [1], the Kd was 1.22 nM, the dissociation rate constant (koff) came to 0.000118 s⁻¹ and the kon is 97000 M⁻¹ s⁻¹. In experiment [2], the Kd was 1.14 nM, the koff was 0.00011 s⁻¹ and the kon stood at 96000 M⁻¹ s⁻¹.

B7: VRDN-02024 (antibody, V domains shown)
VH: QVQLQESGPGLVKPSETLSLTCTVSGYSITGGYLWNWIRQPPGKGLEWIGYISYDGTNNYKPSLKDRVTISRDTSKNQFSLKLSSVTAADTAVYYCARYGRHFFDYWGQGTLVTVSS
VL: DIVMTQSPLSLPVTPGEPASISCRSSQSIVHSNGNTYLQWYLQKPGQSPQLLIYKVSNRLYGVPDRFSGSGSGTDFTLKISRVEAEDVGVYYCFQGSHVPWTFGQGTKVEIK
Take B7: in experiment [1], the Kd was determined as 0.449 nM, the koff is 5.06e-05 s⁻¹ and the kon turned out to be 113000 M⁻¹ s⁻¹. Further, in experiment [2], the Kd is 0.793 nM, the koff came to 7.99e-05 s⁻¹ and the kon amounted to 101000 M⁻¹ s⁻¹.

B8: VRDN-02001 (antibody, V domains shown)
VH: QVQLQESGPGLVKPSETLSLTCTVSHYSITGGYLWNWIRQPPGKGLEWIGYISYDGTNNYKPSLKDRVTISRDTSKNQFSLKLSSVTAADTAVYYCARYGRVFFDYWGQGTLVTVSS
VL: DIVMTQSPLSLPVTPGEPASISCRSSQSIVHSNGNTYLQWYLQKPGQSPQLLIYKVSNRLYGVPDRFSGSGSGTDFTLKISRVEAEDVGVYYCFQGSHVPWTFGQGTKVEIK
Consider B8, for which, in experiment [1], the Kd is 0.495 nM, the koff was found to be 5.1e-05 s⁻¹ and the kon came to 103000 M⁻¹ s⁻¹. Further, in experiment [2], the Kd was 1.2 nM, the koff was 0.000115 s⁻¹ and the kon was determined as 96000 M⁻¹ s⁻¹.

B9: VRDN-02021 (antibody, V domains shown)
VH: QVQLQESGPGLVKPSETLSLTCTVSGYSITGGYLWNWIRQPPGKGLEWIGYISYDGTNNYKPSLKDRVTISRDTSKNQFSLKLSSVTAADTAVYYCARHGRVFFDYWGQGTLVTVSS
VL: DIVMTQSPLSLPVTPGEPASISCRSSQSIVHSNGNTYLQWYLQKPGQSPQLLIYKVSNRLYGVPDRFSGSGSGTDFTLKISRVEAEDVGVYYCFQGSHVPWTFGQGTKVEIK
Turning to B9, in experiment [1], the Kd was 0.868 nM, the koff was 5.84e-05 s⁻¹ and the on-rate constant (kon) was found to be 67300 M⁻¹ s⁻¹. Moreover, in experiment [2], the Kd is 1.38 nM, the koff was 0.000137 s⁻¹ and the kon amounted to 99200 M⁻¹ s⁻¹.

B10: VRDN-02016 (antibody, V domains shown)
VH: QVQLQESGPGLVKPSETLSLTCTVSGYSITGGYLWNWIRQPPGKGLEWIGYISYHGTNNYKPSLKDRVTISRDTSKNQFSLKLSSVTAADTAVYYCARYGRVFFDYWGQGTLVTVSS
VL: DIVMTQSPLSLPVTPGEPASISCRSSQSIVHSNGNTYLQWYLQKPGQSPQLLIYKVSNRLYGVPDRFSGSGSGTDFTLKISRVEAEDVGVYYCFQGSHVPWTFGQGTKVEIK
For the molecule B10, in experiment [1], the Kd worked out at 0.346 nM, the koff was determined as 3.39e-05 s⁻¹ and the kon is 98000 M⁻¹ s⁻¹. In addition, in experiment [2], the Kd came out at 1.31 nM, the koff was determined as 0.000111 s⁻¹ and the kon turned out to be 84300 M⁻¹ s⁻¹.

B11: VRDN-02020 (antibody, V domains shown)
VH: QVQLQESGPGLVKPSETLSLTCTVSGYSITGGYLWNWIRQPPGKGLEWIGYISYDGTNHYKPSLKDRVTISRDTSKNQFSLKLSSVTAADTAVYYCARYGRVFFDYWGQGTLVTVSS
VL: DIVMTQSPLSLPVTPGEPASISCRSSQSIVHSNGNTYLQWYLQKPGQSPQLLIYKVSNRLYGVPDRFSGSGSGTDFTLKISRVEAEDVGVYYCFQGSHVPWTFGQGTKVEIK
For B11, in experiment [1], the Kd is 0.544 nM, the koff turned out to be 5.16e-05 s⁻¹ and the kon was 94800 M⁻¹ s⁻¹. In addition, in experiment [2], the Kd was 1.03 nM, the koff was 9.56e-05 s⁻¹ and the kon came out at 93200 M⁻¹ s⁻¹.

B12: VRDN-02023 (antibody, V domains shown)
VH: QVQLQESGPGLVKPSETLSLTCTVSGYSITGGYLWNWIRQPPGKGLEWIGYISYDGTNNYKPSLKDRVTISRDTSKNQFSLKLSSVTAADTAVYYCARYGHVFFDYWGQGTLVTVSS
VL: DIVMTQSPLSLPVTPGEPASISCRSSQSIVHSNGNTYLQWYLQKPGQSPQLLIYKVSNRLYGVPDRFSGSGSGTDFTLKISRVEAEDVGVYYCFQGSHVPWTFGQGTKVEIK
With B12, in experiment [1], the Kd came to 4.4 nM, the koff worked out at 0.00187 s⁻¹ and the on-rate constant (kon) is 426000 M⁻¹ s⁻¹. In experiment [2], the Kd was found to be 1.23 nM, the koff is 8.97e-05 s⁻¹ and the kon came to 72700 M⁻¹ s⁻¹.

B13: VRDN-02018 (antibody, V domains shown)
VH: QVQLQESGPGLVKPSETLSLTCTVSGYSITGGYLWNWIRQPPGKGLEWIGYISYDGHNNYKPSLKDRVTISRDTSKNQFSLKLSSVTAADTAVYYCARYGRVFFDYWGQGTLVTVSS
VL: DIVMTQSPLSLPVTPGEPASISCRSSQSIVHSNGNTYLQWYLQKPGQSPQLLIYKVSNRLYGVPDRFSGSGSGTDFTLKISRVEAEDVGVYYCFQGSHVPWTFGQGTKVEIK
As for B13, in experiment [1], the Kd was found to be 0.734 nM, the koff was 7.79e-05 s⁻¹ and the kon was found to be 106000 M⁻¹ s⁻¹. In experiment [2], the Kd came to 1.26 nM, the koff turned out to be 0.000108 s⁻¹ and the kon worked out at 85400 M⁻¹ s⁻¹.

B14: VRDN-02019 (antibody, V domains shown)
VH: QVQLQESGPGLVKPSETLSLTCTVSGYSITGGYLWNWIRQPPGKGLEWIGYISYDGTHNYKPSLKDRVTISRDTSKNQFSLKLSSVTAADTAVYYCARYGRVFFDYWGQGTLVTVSS
VL: DIVMTQSPLSLPVTPGEPASISCRSSQSIVHSNGNTYLQWYLQKPGQSPQLLIYKVSNRLYGVPDRFSGSGSGTDFTLKISRVEAEDVGVYYCFQGSHVPWTFGQGTKVEIK
B14: in experiment [1], the Kd was determined as 0.549 nM, the koff turned out to be 5.53e-05 s⁻¹ and the kon was found to be 101000 M⁻¹ s⁻¹. In addition, in experiment [2], the Kd was 1.18 nM, the koff was 0.000101 s⁻¹ and the kon came out at 85800 M⁻¹ s⁻¹.

B15: VRDN-02026 (antibody, V domains shown)
VH: QVQLQESGPGLVKPSETLSLTCTVSGYSITGGYLWNWIRQPPGKGLEWIGYISYDGTNNYKPSLKDRVTISRDTSKNQFSLKLSSVTAADTAVYYCARYGRVFHDYWGQGTLVTVSS
VL: DIVMTQSPLSLPVTPGEPASISCRSSQSIVHSNGNTYLQWYLQKPGQSPQLLIYKVSNRLYGVPDRFSGSGSGTDFTLKISRVEAEDVGVYYCFQGSHVPWTFGQGTKVEIK
Consider B15, for which, in experiment [1], the Kd is 2.4 nM, the koff came to 9.99e-05 s⁻¹ and the kon was 41500 M⁻¹ s⁻¹. In experiment [2], the Kd came to 1.64 nM, the koff turned out to be 6.71e-05 s⁻¹ and the kon is 40800 M⁻¹ s⁻¹.
